Substitutions are numbered along the chain they refer to.
T1: huNectin4-His (human, UniProt Q96NY8 32-349)
T1 construct: Immobilized on the SPR chip; also called humanNectin4; human Nectin4; not shown: His tag
T1 sequence (looked up): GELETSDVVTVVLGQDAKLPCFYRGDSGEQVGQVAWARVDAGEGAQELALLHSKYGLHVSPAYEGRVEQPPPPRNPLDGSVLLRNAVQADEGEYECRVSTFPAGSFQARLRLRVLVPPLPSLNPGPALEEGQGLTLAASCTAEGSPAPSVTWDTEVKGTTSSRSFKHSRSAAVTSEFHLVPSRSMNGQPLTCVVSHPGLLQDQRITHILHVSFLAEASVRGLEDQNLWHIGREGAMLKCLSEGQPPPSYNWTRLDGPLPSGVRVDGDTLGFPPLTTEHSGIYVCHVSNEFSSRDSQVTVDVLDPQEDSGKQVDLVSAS

T2: RatNectin4-His (rat, UniProt D3ZET1 31-348)
T2 construct: Immobilized on the SPR chip; not shown: His tag
T2 sequence: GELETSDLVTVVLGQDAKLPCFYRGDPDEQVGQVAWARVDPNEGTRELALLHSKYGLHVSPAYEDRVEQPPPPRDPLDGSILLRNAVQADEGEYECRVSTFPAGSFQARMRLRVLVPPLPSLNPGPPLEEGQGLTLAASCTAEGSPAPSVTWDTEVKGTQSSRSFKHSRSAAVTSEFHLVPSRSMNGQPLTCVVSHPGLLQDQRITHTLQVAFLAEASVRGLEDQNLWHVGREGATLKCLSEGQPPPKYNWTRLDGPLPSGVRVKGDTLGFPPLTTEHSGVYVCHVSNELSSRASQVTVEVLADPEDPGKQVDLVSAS

T3: recombinant human Nectin4 antigen (human, UniProt Q96NY8 32-349)
T3 construct: construct not described
T3 sequence (looked up): T1 sequence (looked up)

B1: BAP-143-wildtype (antibody, V domains shown)
VH: EVQLVESGGGLVQPGGSLRLSCAASGFTFSSYNMNWVRQAPGKGLEWVSYISSSSSTIYYADSVKGRFTISRDNAKNSLSLQMNSLRDEDTAVYYCARAYYYGMDVWGQGTTVTVSS
VL: DIQMTQSPSSVSASVGDRVTITCRASQGISGWLAWYQQKPGKAPKFLIYAASTLQSGVPSRFSGSGSGTDFTLTISSLQPEDFATYYCQQANSFPPTFGGGTKVEIK
notes: 150 kDa used in SPR; also called BAP143-00-00; benchmark (BM)
B2: BAP-143-06-24-16 (antibody, V domains shown)
VH: EVQLVQSGAEVKKPGATVKISCKVSGFTFSSYNMNWIRQSPSRGLEWLGYISSSSSTIYYADSVKGRFTISRDNSKNTLYLQMNSLRAEDTAVYYCARAYYYGDDVWGQGTLVTVSS
VL: B1 VL with R24H
notes: Used as a conjugate with a linker payload (CAB ADC)
B3: BAP-143-06-33-16 (antibody, V domains shown)
VH: B2 VH
VL: B1 VL with L33E
notes: as for B2
B4: BAP-143-07-03-12 (antibody, V domains shown)
VH: B1 VH with V106K
VL: B1 VL with L33E
notes: as for B2
B5: BAP-143-00-01 (antibody, V domains shown)
VH: B1 VH
VL: B1 VL with L33E
notes: as for B2
B6: BAP-143-06-33-03 (antibody, V domains shown)
VH: QVQLVQSGAEVKKPGASVKVSCKASGFTFSSYNMNWVRQARGQRLEWIGYISSSSSTIYYADSVKGRFTISRDNSKNTLYLQMNSLRAEDTAVYYCARAYYYGMDKWGQGTLVTVSS
VL: B1 VL with F94E
notes: as for B2

The binders below were run against T1, huNectin4-His (assay: SPR, huNectin4-His immobilized, pH 6.5).
Experimental: Binding kinetics of anti-Nectin4 antibodies were measured by surface plasmon resonance using a SPR2/4 instrument (Sierra Sensors, Hamburg, Germany) and flat amine sensor chips. The SPR sensor contained four flow cells (FC1-FC4), each of which was addressed individually or in groups. huNectin4-His was immobilized in FC2, and cynoNectin4-mFc in FC4. No protein was immobilized in FC1 and FC3 which were used as control surfaces for FC2 and FC4, respectively.
(§1) All injections were done at a flow rate of 25 μL/min at 25° C. The sensor surface was activated with 1-ethyl-3-(3-dimethylaminopropyl)-carbodiimide (EDC) and N-hydroxysuccinimide (NHS) (200 mM/50 mM) for 480 seconds. HuNectin4-His (2 μg/mL in 10 mM NaAc, pH4.5) was injected for 480s and the surface was inactivated by injecting 1M ethanolamine-HCl for 480s. CynoNectin4 was immobilized using the same conditions as described for huNectin4-His, except that the cynoNectin4 was diluted into 10 mM NaAc buffer having pH 5.0. The control surface was activated and deactivated using the same conditions, but without injecting protein. PBST buffer (PBS pH 7.4 with 0.05% TWEEN20™) was used as running buffer for the surface preparation. The running solution was switched to PBST with 30 mM sodium bicarbonate with the pH adjusted as indicated in the figures before the analyte injections. The instrument was equilibrated with the running solution for one hour before the first analyte injection.
(§2) The off-rate was measured for 360s. The chip surface was regenerated after each cycle of interaction analysis by injecting 6 μL of 10 mM glycine (pH 2.0). Flow cells 1 and 3 without immobilized protein were used as control surfaces for reference subtraction.

| Kd | koff | kon | Binder |
| --- | --- | --- | --- |
| 0.102 nM |  |  | B1 |
| 0.00487 nM | 9.92e-06 s⁻¹ | 2.04e+06 M⁻¹ s⁻¹ | B2 |
| 0.0282 nM | 5.94e-05 s⁻¹ | 2.11e+06 M⁻¹ s⁻¹ | B3 |
| 0.641 nM | 0.000483 s⁻¹ | 754000 M⁻¹ s⁻¹ | B4 |
| 0.785 nM | 0.000474 s⁻¹ | 605000 M⁻¹ s⁻¹ | B5 |

What follows are binders tested against T2, RatNectin4-His (assay: SPR, RatNectin4-His immobilized, pH 6.0).
Experimental: as §1, §2
(§3) In addition, data with buffer only as analyte (0 nM analyte) was subtracted from each run. Double subtracted data was fitted with the provided analysis software Analyzer R2 (Sierra Sensors) using a 1:1 binding model. A molecular weight of 150 kDa was used to calculate the molar concentrations of the analytes. RatNectin4-His was immobilized in FC3 using the same conditions as described for cynoNectin4.

| Kd | koff | kon | Binder |
| --- | --- | --- | --- |
| 0.175 nM |  |  | B1 |
| 0.104 nM | 0.000635 s⁻¹ | 6.1e+06 M⁻¹ s⁻¹ | B2 |
| 0.154 nM | 0.000394 s⁻¹ | 2.57e+06 M⁻¹ s⁻¹ | B3 |
| 0.738 nM | 0.0012 s⁻¹ | 1.62e+06 M⁻¹ s⁻¹ | B4 |
| 1.17 nM | 0.00159 s⁻¹ | 1.36e+06 M⁻¹ s⁻¹ | B5 |

These binders were tested against T3, recombinant human Nectin4 antigen (assay: ELISA, coated antigen, PSB pH 6.0).
Experimental: 1) Coat ELISA plates with 100 μL of 1 μg/mL recombinant human Nectin4 antigen or cynoNectin4 antigen in carbonate-bicarbonate coating buffer. […] 2) Cover plates with sealing film and incubate overnight at 4° C. [0444] 3) Decant plates and tap out residual liquid on a stack of paper towels. [0445] 4) Wash wells twice by dispensing 200 μL of pH 6.0 or pH 7.4 ELISA incubation buffer to the wells and completely aspirate the contents. [0446] 5) Add 200 μL of pH 6.0 or pH 7.4 ELISA incubation buffer to the wells. Cover with sealing film and place the plate onto a plate shaker set to 50 rpm for 60 minutes at room temperature. [0447] 6) Decant plates and tap out residual liquid on a stack of paper towels. […] 7) Serially dilute test articles in 3-fold dilutions starting at 3000 ng/mL in pH 6.0 or pH 7.4 ELISA incubation buffer. […] 8) Add 100 μL/well of diluted test articles to the plates [0450] 9) Cover with sealing film and place the plates onto a plate shaker set to 50 rpm for 60 minutes at room temperature. [0451] 10) Decant plates and tap out residual liquid on a stack of paper towels. [0452] 11) Wash wells three times by dispensing 200 μL of pH 6.0 or pH 7.4 ELISA wash buffer to the wells and completely aspirate the contents. […] 12) Dilute the HRP secondary antibody at 1:2500 in pH 6.0 or pH 7.4 ELISA incubation buffer. [0454] […] 14) Cover with sealing film and place the plates onto a plate shaker set to 50 rpm for 60 minutes at room temperature. […] 15) Decant plates and tap out residual liquid on a stack of paper towels. […] 16) Wash wells three times by dispensing 200 μL of pH 6.0 or pH 7.4 ELISA wash buffer to the wells and completely aspirate the contents. [0458] 17) Dispense 50 μL per well of the TMB substrate solution into all wells of the plates.

| EC50 | Binder |
| --- | --- |
| 0.0216 µg/mL | B1 |
| 0.0368 µg/mL | B2 |
| 0.0575 µg/mL | B6 |
| 0.0669 µg/mL | B3 |
| 0.0533 µg/mL | B4 |

These binders were tested against T2, RatNectin4-His (assay: SPR, RatNectin4-His immobilized, pH 7.4).
Experimental: as §1, §2, §3

| Kd | koff | kon | Binder |
| --- | --- | --- | --- |
| 0.135 nM |  |  | B1 |
| 0.171 nM | 0.000178 s⁻¹ | 1.04e+06 M⁻¹ s⁻¹ | B2 |
| 1.94 nM | 0.000261 s⁻¹ | 135000 M⁻¹ s⁻¹ | B3 |
| 1.31 nM | 0.000731 s⁻¹ | 557000 M⁻¹ s⁻¹ | B4 |
| 2.42 nM | 0.000875 s⁻¹ | 361000 M⁻¹ s⁻¹ | B5 |

Reference: US20230235054A1 (BIOATLA, published 2023)
